Sequences and labels used below:
B1: Anti-FAM19A5 antibody ("S5-SG") (antibody, V domains shown)
VH: AVTLDESGGGLQTPGGALRLSCKASGFTFSSYQMGWVRQAPGKGLEWVSAINKGGSDTSYGSAVKGRATISRDNGQSTLYLQMNSLRAEDTAVYFCAKGSASYITAATIDAWGHGTEVIVSS
VL: ALTQPSSVSANPGETARITCSGGASSGYGYGWYQQKPSSAPLTVIYKDSERPSDIPSRFSGSSSGSTHTLTISGVQAEDEAVYFCGNDDYSSDSGYVGVFGAGTTLTVL
B2: Reference anti-FAM19A5 antibody ("1-65") (antibody, V domains shown)
VH: AVTLDESGGGLQTPGGALSLVCKASGFTFSSYQMGWVRQAPGKGLEWVGVINKSGSDTSYGSAVKGRATISRDNGQSTVRLQLNNLRAEDTGTYFCAKGSASYITAATIDAWGHGTEVIVSS
VL: ALTQPSSVSANPGETVKITCSGGGSSGYGYGWYQQKSPSSAPLTVIYWNDKRPSDIPSRFSGSKSGSTHTLTITGVQAEDEAVYFCGNDDYSSDSGYVGVFGAGTTLTVL
B3: Anti-FAM19A5 antibody ("SS01-13-s5") (antibody, V domains shown)
VH: B1 VH with G54S
VL: B1 VL

Substitutions are numbered along the chain they refer to.

For one test, the target named is human FAM19A5-Fc protein (human), Q7Z5A7. Put plainly: cell-based or functional assay.
human FAM19A5-Fc protein (human), Q7Z5A7, sequence (Q7Z5A7 44-132): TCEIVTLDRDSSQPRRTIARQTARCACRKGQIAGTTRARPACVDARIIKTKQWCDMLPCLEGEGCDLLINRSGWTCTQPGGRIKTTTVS
Molecule B1 had an amount of phagocytosis (uptake of pHrodo Green E. coli BioParticles by BV2 cells) compared to the control group (PBS alone), about 10 hours after BioParticles of 89%.
Take B2: the amount of phagocytosis (uptake of pHrodo Green E. coli BioParticles by BV2 cells) compared to the control group (PBS alone), about 10 hours after BioParticles came out at 86%.
On the same count and under the same terms, the result for B3 reads 96%.

The target in another test is Recombinant human FAM19A5 protein (His-tagged) (human) (UniProt Q7Z5A7). Kind of test: SPR (Biacore): FAM19A5 protein immobilised on the sensor chip, antibody injected at 1.1 to 90 nM in single cycle kinetics mode, 1:1 binding fit. Background: Surface plasmon resonance follows binding to a sensor surface in real time, without labels.
Recombinant human FAM19A5 protein (His-tagged) (human), sequence (Q7Z5A7 44-132): as above
On to B1, for which the koff was 0.00183 s⁻¹ and the kon was 1.02e+06 M⁻¹ s⁻¹.
Taken in the same sequence, the figures for B2 were 0.000567 s⁻¹ and 1.64e+06 M⁻¹ s⁻¹.
Taken in the same sequence, the figures for B3 were 0.000822 s⁻¹ and 373000 M⁻¹ s⁻¹.

The next test shares this target. Put plainly: SPR, FAM19A5 immobilised on sensor chip, antibody as analyte, single cycle kinetics, 1:1 fit.
In the case of B1, the Kd was determined as 1.8 nM.
Still for that read-out and setting: in the case of B2 it was 0.345 nM; in that of B3, 2.2 nM.

The term koff denotes a measure of how fast the partners let go of each other. Usually kon stands for the rate constant with which the complex forms. Usually Kd stands for a measure of binding affinity in units of concentration.
